We go through six molecules from US20260060994A1, “GLYCOSYLATED COMPOSITIONS AND METHODS OF USE” (Cy Biopharma AG, priority 2023, published 2026).

Data set [1] is described as follows: Pharmacokinetic experiment in mice, plasma and brain, LC-MS/MS. The data set is classed as in vivo, C57Bl/6J mice. How it is done: In a pharmacokinetic experiment in C57Bl/6J mice (3 animals per timepoint; schedule shown below) two example compounds, Cy1 (4-HO-EPT glycoside) and Cy2 (4-HO-DMT glycoside) were dosed at two different concentrations (20 mg/kg dose shown here) and the parent compounds and their de-glycosylated forms, 4-HO-EPT and psilocin (4-HO-DMT), respectively, were measured by LC-MS/MS in plasma and brain tissue samples. For comparison, psilocybin was dosed at 1.5 mg/kg orally and plasma and brain tissue concentrations of psilocin (4-HO-DMT) were measured. Samples were collected at four or five different timepoints (from 10-minutes post dosing up to 6-hours post dosing) following the test article administration.
Schedule of pharmacokinetic experiment shown below.
Results are reported in ng/mL for the concentration in plasma and in ng/g tissue for the concentration measured in brain samples.
Results: The graphs in FIG. 35, FIG. 36, FIG. 37, and FIG. 38 display the time course of concentrations of compounds as indicated. For each time point the data for the individual animals are plotted.

Data set [2] can be described thus: Glycosylation of 4-HO-MET by GLY enzymes (UDP-glucose), LC-UV/MS. The settings on record: 0.5 mM 4-OH-MET, 1.25 mM UDP-glucose, 25% (v/v) GLY enzyme, 24 h at 30° C.; estimate from UV peak areas. The data set is classed as biochemical. How it is done: 4-HO-MET was dissolved in 100% (v/v) DMSO to a concentration of 10 mM. The solution was stored at −20° C. prior to use.
FastAP phosphatase (1 U/uL) from ThermoFisher Scientific (catalog no. EF0651).
GLY enzyme suspensions contain 10 mM Tris-HCl at pH7.4, 250 mM imidazole and 50% (v/v) glycerol.
(§1) The assay conditions were: • 100 mM Tris-HCl, pH 7.4 • 5 mM MgCl2 • 1 mM KCl • 1.25 mM UDP-glucose • 0.5 mM 4-OH-MET • 5% (v/v) DMSO • 0.1 U/uL Fast AP phosphatase • 25% (v/v) GLY enzyme
(§2) Incubation was 24 house at 30° C. Reactions were terminated adding 3 volumes of 75% (v/v) ethanol.
(§3) LC separation was performed using an Agligen 1290 Infinity II UHPLC equipped with a Phenomenex Kinetex XB-C18 column (1.7 um, 100 angstroms, 100×2.1 mm) and 4-HO-MET was detected by absorbance at 210 nm and 268 nm with an Agilent 1260 Infinity II DAD.
(§4) 0.1% Formic acid in water (A) and 0.1% Formic acid in acetonitrile (B) were used as the mobile phases for the elution gradient, with a flow rate of 0.4 ml/min. Retention time for 4-HO-MET using this type of instrument under these condition was 2.6 min. The system was coupled to an Ultivo Triple Quadrupole MS. To verify the presence of possible glycoside products, as SIM (Selected Ion Monitoring) method was used on the MS to analyse for the m/z 381 (theoretical mass to chart ratio of 4-HO-MET-glucoside) and m/z 219 (theoretical mass to charge ratio of 4-HO-MET).
As standard, 4-HO-MET solutions at a concentrations of 500, 250, 125, 62.5, and 31.25 uM were prepared from the 10 mM stock and used for caliboration.
A representative example of the chromatograms obtained with a wavelength of 268 nm for the standard solutions resuspended in the reaction buffer, and the corresponding MS-SIM signal, is shown in FIG. 16. The peak corresponding to 4-HO-MET is indicated.
When analyzing the GLY reactions, 30 of them gave an additional peak with retention time 2.2 min (i.e. in the expected region for a 4-HO-MET glucoside) and molecular mass compatible with the expected glucoside product, together with a corresponding decrease in substrate concentration, compared to the no-enzyme controls.
The method was repeated using various GLY enzymes to produce 4-HO-MET glucosides.
(§5) The enzymes giving the additional peak putatively corresponding to the 4-HO-MET-β-D-glucoside are listed below. […] A correct quantification of the product is not possible without a standard for the specific molecule. However, based on the assumption that the ratio area-to-concentration in the UV chromatograms will be similar to 4-HO-MET, estimates of the relative abundance for the additional peak are also given, expressed as percentage of converted 4-HO-MET. GLY enzymes hits are ranked according to their estimated conversion efficiency.

Data set [3] is described as follows: Glycosylation of 4-OH-EPT by GLY enzymes (UDP-glucose), LC-UV/MS. The settings on record: conditions of Examples 1 and 2 repeated for 4-OH-EPT; estimate from UV peak areas. It counts as biochemical. As for the experimental part: as §1, §2, §3, §4, §5
The experiments described in Examples 1 and 2 above were repeated for 4-OH-EPT.
Below is the corresponding data for 4-OH-EPT.

Data set [4] can be described thus: Glycosylation of 4-OH-MiPT by GLY enzymes (UDP-glucose), LC-UV/MS. The settings on record: conditions of Examples 1 and 2 repeated for 4-OH-MiPT; estimate from UV peak areas. It counts as biochemical. As for the experimental part: as §1, §2, §3, §4, §5
(§6) The experiments described in Examples 1 and 2 above were repeated for 4-OH-MiPT, 4-HO-DMT and 5-HO-DMT
Below is the corresponding data for 4-OH-MiPT.

Data set [5] in a line: Glycosylation of 4-OH-DMT by GLY enzymes (UDP-glucose), LC-UV/MS. The data set is classed as biochemical. To be noted: conditions of Examples 1 and 2 repeated for 4-HO-DMT; estimate from UV peak areas. As for the experimental part:
as §1, §2, §3, §4, §5, §6
(§7) Below is the corresponding data for 4-OH-DMT and 5-HO-DMT.

Data set [6] can be described thus: Glycosylation of 5-HO-DMT by GLY enzymes (UDP-glucose), LC-UV/MS. It counts as biochemical. To be noted: conditions of Examples 1 and 2 repeated for 5-HO-DMT. As for the experimental part: as §1, §2, §3, §4, §5, §6, §7

Take `CCCN(CC)CCc1c[nH]c2cccc(O[C@@H]3O[C@H](CO)[C@@H](O)[C@H](O)[C@H]3O)c12` [Cy1, 4-HO-EPT glycoside]: the “period of exposure in brain” value in data set [1] (higher doses (20 mg/kg p.o.), brain, as compared to psilocybin 1.5 mg/kg p.o.) is recorded as “extended period of exposure”. Besides, the “period of exposure in plasma” value in data set [1] (higher doses (20 mg/kg p.o.), plasma, as compared to psilocybin 1.5 mg/kg p.o.) is “extended period of exposure”. In addition, the “time to peak brain concentration” value in data set [1] (p.o. single dose, brain, as compared to the administration of psilocybin 1.5 mg/kg p.o.) is reported as “extended”. The “time to peak plasma concentration” value in data set [1] (p.o. single dose, plasma, as compared to the administration of psilocybin 1.5 mg/kg p.o.) was “extended”.

B1: GLY170: glycosyltransferase (UGT), SEQ ID NO: 28 (protein)
chain: MKKINLVVIPFAGVGHLVSTIEFIKRLLSRDDRFSVTILVIKSPLEHSLDPNTSPPSLPSSHPHIQFINVRSLNPPPIEVFLKSPEKYFTLYIESYKLKVKEIIVDHVLPNSAPLGGLFLDMFSTSMVDVAQELGVPSYVFLTSGAGFLGFVLYLQTRHDRGGAEFELSDIESYIPSYVNPVPSRVLPSLAFNREGGYVSFVNVARNMKKTKGIIVNTVFELESHAISSLLMDGATPPVYAVGPLIDHKGESHFRTDQAKRDKIIKWLDDQPTKSVIFLCFGSFGSFGVPQLREIAIGLEQSGARFLWSIRQAKSIFEMPIECEKPEEFLPQGFLDRTKELGMICGWTPQIEVLAHRAIGGFVSHCGWNSILESLWHGVPIVTWPLYAEQQINAFQIVKDLGLGVELRLDYRRDGGDVDVVMRDEIEKAVRYVMDGDSEVRQRVQEASEKCRKAVVEGGSSFSSIGSLIEAILANIS
B1: in data set [2], the “4-OH-MET GLY % (percentage of converted 4-HO-MET)” value was 31.6%. In addition, in data set [3], the “4-OH-EPT GLY % (percentage of converted 4-OH-EPT)” value is recorded as 23.4%. The “4-OH-MiPT GLY % (percentage of converted 4-OH-MiPT)” value in data set [4] is 38.8%. Besides, the “4-OH-DMT GLY %” value in data set [5] is on record as 15.7%.

B2: GLY91: glycosyltransferase (UGT), SEQ ID NO: 12 (protein)
chain: MGKQEDAELVIIPFPFSGHILATIELAKRLISQDNPRIHTITILYWGLPFIPQADTIAFLRSLVKNEPRIRLVTLPEVQDPPPMELFVEFAESYILEYVKKMVPIIREALSTLLSSRDESGSVRVAGLVLDFFCVPMIDVGNEFNLPSYIFLTCSAGFLGMMKYLPERHREIKSEFNRSFNEELNLIPGYVNSVPTKVLPSGLFMKETYEPWVELAERFPEAKGILVNSYTALEPNGFKYFDRCPDNYPTIYPIGPILCSNDRPNLDLSERDRILKWLDDQPESSVVFLCFGSLKSLAASQIKEIAQALELVGIRFLWSIRTDPKEYASPNEILPDGFMNRVMGLGLVCGWAPQVEILAHKAIGGFVSHCGWNSILESLRFGVPIATWPMYAEQQLNAFTIVKELGLALEMRLDYVSEYGEIVKADEIAGAVRSLMDGEDVPRRKLKEIAEAGKEAVMDGGSSFVAVKRFIDGL
For B2, in data set [2], the “4-OH-MET GLY % (percentage of converted 4-HO-MET)” value was 20.7%. Further, the “4-OH-EPT GLY % (percentage of converted 4-OH-EPT)” value in data set [3] is listed as 5.4%. In addition, the “5-OH-DMT GLY %” value in data set [6] was found to be 1%.

B3: GLY163: glycosyltransferase (UGT), SEQ ID NO: 22 (protein)
chain: MTGELIFIPMPSLSHIASTMEIAKLLVHRDDRLSITVLLISSQYTTSITTYINSLIASSDYDRIRFIHLPELDSEEEPKRPFMSVIDDNKPIVKEAVTNLALSFDPSHRLAGFVIDMFCVGMIEVADELGLPSYPFFTSSTSFLALQFHVQTLADEEEVDITEFKNSDVMLPIPGLVNPLPAKTILPSAMLNKDWLPYVLNGARGFRKTKGIMVNSFAEIESNAVTSLSNSTVPPVYTVGPIINFKGDGQDSDTCTAHKYSNIMTWLDDQPPSSVLFLCFGSLGSFDEEQVKEIARALEGSGHRFLWSLRRPPPKDKTMSFPTEYENFEEVLPEGFVDRTVGMGKVMGWAPQVAVLAHPSIGGFVTHCGWNSILESVWFGVPMAAWPLYAEQQFNAFHMVVELGLAVEIKMDYRKDYAILGLQEERVSAEVIEKGIRCLMEEDNDARKKVKEMSEISRKALMDGGSSHAVLGQFIEDVMNNISA
Turning to B3, in data set [2], the “4-OH-MET GLY % (percentage of converted 4-HO-MET)” value is 40.5%. Also, the “4-OH-EPT GLY % (percentage of converted 4-OH-EPT)” value in data set [3] is recorded as 46.3%. In addition, in data set [4], the “4-OH-MiPT GLY % (percentage of converted 4-OH-MiPT)” value was 61.6%. Further, the “4-OH-DMT GLY %” value in data set [5] is recorded as 10.6%.

B4: GLY153: glycosyltransferase (UGT), SEQ ID NO: 20 (protein)
chain: MAETDSPPHVAILPSPGMGHLIPLVELAKRLVHQHNLSVTFIIPTDGSPSKAQRSVLGSLPSTIHSVFLPPVNLSDLPEDVKIETLISLTVARSLPSLRDVLSSLVASGTRVVALVVDLFGTDAFDVAREFKASPYIFYPAPAMALSLFFYLPKLDEMVSCEYSEMQEPVEIPGCLPIHGGELLDPTRDRKNDAYKWLLHHSKRYRLAEGVMVNSFIDLERGALKALQEVEPGKPPVYPVGPLVNMDSNTSGVEGSECLKWLDDQPLGSVLFVSFGSGGTLSFDQITELALGLEMSEQRFLWVARVPNDKVANATYFSVDNHKDPFDFLPKGFLDRTKGRGLVVPSWAPQAQVLSHGSTGGFLTHCGWNSTLESVVNAVPLIVWPLYAEQKMNAWMLTKDVEVALRPKASENGLIGREEIANIVRGLMEGEEGKRVRNRMKDLKDAAAEVLSEAGSSTKALSEVARKWKNHKCTQDCN
Regarding B4, the “4-OH-MET GLY % (percentage of converted 4-HO-MET)” value in data set [2] is reported as 6%. Besides, the “5-OH-DMT GLY %” value in data set [6] stood at 5%.

B5: GLY74: glycosyltransferase (UGT), SEQ ID NO: 6 (protein)
chain: MRNVELIFIPTPTVGHLVPFLEFARRLIEQDDRIRITILLMKLQGQSHLDTYVKSIASSQPFVRFIDVPELEEKPTLGSTQSVEAYVYDVIERNIPLVRNIVMDILTSLALDGVKVKGLVVDFFCLPMIDVAKDISLPFYVFLTTNSGFLAMMQYLADRHSRDTSVFVRNSEEMLSIPGFVNPVPANVLPSALFVEDGYDAYVKLAILFTKANGILVNSSFDIEPYSVNHFLQEQNYPSVYAVGPIFDLKAQPHPEQDLTRRDELMKWLDDQPEASVVFLCFGSMARLRGSLVKEIAHGLELCQYRFLWSLRKEEVTKDDLPEGFLDRVDGRGMICGWSPQVEILAHKAVGGFVSHCGWNSIVESLWFGVPIVTWPMYAEQQLNAFLMVKELKLAVELKLDYRVHSDEIVNANEIETAIRYVMDTDNNVVRKRVMDISQMIQRATKNGGSSFAAIEKFIYDVIGIKP
Turning to B5, the “4-OH-MET GLY % (percentage of converted 4-HO-MET)” value in data set [2] is 36%. The “4-OH-EPT GLY % (percentage of converted 4-OH-EPT)” value in data set [3] is on record as 7%. In data set [4], the “4-OH-MiPT GLY % (percentage of converted 4-OH-MiPT)” value is 19.3%. Moreover, the “4-OH-DMT GLY %” value in data set [5] is on record as 22.4%.
